The text below walks through data of the supplement of paper PMC12042874.

± gives the uncertainty stated by the source.

The data set in a line: amyloid nucleation score (Sup35N fusion, yeast selection) (log enrichment); library NNK1; higher = more nucleation; inactive = no reads after selection. The essentials: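 Output and input plasmid inserts were sequenced by Illumina after psi-negative yeast carrying Sup35N fused to peptides of 20 random codons had been induced 24 hours with 100 μM copper sulfate and grown 7 days at 30°C on medium lacking adenine and uracil. The nucleation score is the DiMSum log enrichment of output over input reads, centred on the mode score of non-aggregating sequences. Sequences with under 100 input reads were excluded.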
On to WGQLIRGRNRSSQGEEMRYL, for which the amyloid nucleation score is -0.148 ± 0.26. WGSCISFRNRGMCLILDSVC showed an amyloid nucleation score of 0.037 ± 0.37. Take WGTVYVPV: the amyloid nucleation score is 1.72 ± 0.49. With WGVALRDAATAVDVGLVVRF the figure was 0.37 ± 0.62. The figure for WGYNRLNDDELLIMSKFLRQ is 1 ± 0.48; for WHASNFLTSSSHKMSSNWTS it is 0.67 ± 0.48. WHPRSLVPPTRL: the amyloid nucleation score is 0.758 ± 0.56. The figure for WHRGYGMLTRLRWRPDTVLF is -0.052 ± 1.2; for WICQTGRFNELTHRCCVWFF it is 0.762 ± 0.47; for WIMVFWEFVNLTCNNRILDN it is -0.588 ± 0.72.

In the case of WIPGRLLSAVKVGSNSLVF, the amyloid nucleation score is -0.637 ± 0.62. WISEYGWFRIKFAWAAYGYR displayed an amyloid nucleation score of -0.023 ± 0.72. The figure for WIYRFPHKMHVIEDVRSVN is 0.894 ± 0.58. Regarding WKFLFVVFIYSNYVVGLLDN, the amyloid nucleation score was -0.915 ± 0.67. WKGMMQFDMSHSCVYWWKCA: the amyloid nucleation score was determined as 0.71 ± 1.1. The substance WKKPIQGSVW gave an amyloid nucleation score of 0.295 ± 0.49. With WKQLTCWSEILDTIDSL the figure was 0.901 ± 0.79; with WLGLGVRALRSENVCCRAFH, 1.1 ± 0.49. Take WLGSYIVFLIRMETYDWWIV: the amyloid nucleation score is -0.114 ± 0.38.

Take WLHNIQRYTFFSKLRNQRRR: the amyloid nucleation score was -0.442 ± 0.76.

With WLLIRKGGVRFKIQYRHQHS, the amyloid nucleation score was 1.73 ± 0.37. WLLISSALIIYVRHGLIRSM: the amyloid nucleation score is -0.455 ± 0.81. WLLMSCTHCSCLKMRIHWKG registered an amyloid nucleation score of -1.1 ± 2.4.

For the substance WLLWLTSSYKHQWMT, the amyloid nucleation score is -1.7 ± 1.4. As for WLPFLVFCRGESYYRLDRSS, the amyloid nucleation score is 2.42 ± 0.091. WLSSKGRQSMSYCAYTMRTP yielded an amyloid nucleation score of -0.247 ± 0.34. Substance WLWINPMEVDYGVLTRLEKT registered an amyloid nucleation score of -0.213 ± 0.26. With WMDTLVSIGRGGMLRVSCSG the figure was 0.519 ± 0.49; with WMKVLVPFRMEAASGSLFCS, -1.22 ± 1.3; with WMWGGGRWRRVPRRCMVVGR, -0.054 ± 0.4.

WNEVILILDNCAIVCYDILT: the amyloid nucleation score is 4.05 ± 0.054. As for WNEWRGHVTILGDLYSYRHT, the amyloid nucleation score was 3.6 ± 0.16.

In turn, WNIRGVMGLSNVR had an amyloid nucleation score of -0.058 ± 0.29. Substance WNSLSWRVRMRGDNQYRRGR came in with an amyloid nucleation score of 0.675 ± 1. WPRNRHGVVILLVVIANSCS came in with an amyloid nucleation score of -0.379 ± 0.76. In turn, WPRVGETSRVNLTTGIMS returned an amyloid nucleation score of -0.297 ± 0.29.

In turn, WPVYEDKACCHVDAHKGEAT showed an amyloid nucleation score of 0.838 ± 0.48. With WQQGLVCQI the figure was 0.241 ± 0.37; with WQRNDQWMVVQVITVSV, 0.176 ± 0.47; with WRDTDCGLIN, “inactive”. WRESSGTNLSAFVPKDM returned an amyloid nucleation score of -0.675 ± 0.81.

Regarding WRGRVTKFRVLH, the amyloid nucleation score worked out at 0.105 ± 0.53. With WRLMRECTFSVS the figure was 0.137 ± 0.29; with WRLTSS, -0.809 ± 0.45; with WRSSSFSGIWYVSVGYNASL, -0.455 ± 0.4. Consider WSFLDWWIRSRSLITVCVVS, for which the amyloid nucleation score was -0.348 ± 0.46. In turn, WSGWAKPSHYVALGRVGSWE came in with an amyloid nucleation score of -0.075 ± 0.63. As to WSLQKRG, the amyloid nucleation score entry is “inactive”. Take WSLVDDPLVFERLFWPCYQ: the amyloid nucleation score is 0.142 ± 0.31. In turn, WSSYTFR registered an amyloid nucleation score of 0.839 ± 0.63. With WSTGDVLVLVKLYYAFMCVI the figure was -0.819 ± 0.27; with WSTLVKRSDFCVHWVLFGSG, -0.179 ± 0.46.

As for WSTQSLCFGPT, the amyloid nucleation score turned out to be 0.012 ± 0.63. In turn, WSVISIEASLCRQVPLYANT registered an amyloid nucleation score of 0.26 ± 0.65.

In the case of WSYLQY, the amyloid nucleation score was -0.364 ± 0.79. The substance WTAWADNSACSLCGQN yielded an amyloid nucleation score of 0.859 ± 0.73. As to WTISSKGFFCWINCGLLQKR, the amyloid nucleation score amounted to 5.704 ± 0.05. Consider WTLCMPKCGWRQSFSLRSRR, for which the amyloid nucleation score is -0.294 ± 0.47.

Turning to WTYWGSCGGLWSKIFIYFLL, the amyloid nucleation score stood at 3.66 ± 0.078. For the substance WVAINPCV, the amyloid nucleation score stood at 0.464 ± 0.88.

The substance WVARVMCRKNSYSMLIMWIC displayed an amyloid nucleation score of -0.102 ± 0.22. On to WVCRSISPLVRTSLPRYWRN, for which the amyloid nucleation score entry is “inactive”. Substance WVCSNNMHMSIANVGLDCNL had an amyloid nucleation score of 0.178 ± 0.33. With WVKCLPGGLQAFWYS the figure was -0.369 ± 1; with WVLVIVLLRRWHHRDGAGQS, 0.57 ± 0.47; with WVLVSVH, 0.211 ± 0.24. As to WVQNHKRQAPRDVLLSSYPD, the amyloid nucleation score result is “inactive”.

WVSNCIFDAGLWRSYYRMGI: the amyloid nucleation score amounted to 0.74 ± 0.34.

Substance WVTQVDWSGRR came in with an amyloid nucleation score of -0.348 ± 0.77. On to WVWSLWYSRDGVKVFFDRQS, for which the amyloid nucleation score is -0.39 ± 0.34.

In turn, WWGRGVLVWYGCRAKVWTS registered an amyloid nucleation score of 0.012 ± 1.6. Substance WWSRTLSLLE returned an amyloid nucleation score of -0.035 ± 0.32. Turning to WWVYRARFNCCHLYKVYLHC, the amyloid nucleation score amounted to 0.221 ± 0.88.

As for WWYQCHCSYYHAIGITSVQE, the amyloid nucleation score is 1.39 ± 0.63. On to WYCPATH, for which the amyloid nucleation score amounted to 0.836 ± 0.97.

Turning to WYPMYQNTYRAEERVT, the amyloid nucleation score stood at 0.42 ± 0.64. Substance WYPYTVSIPLIYVVSCIDEY came in with an amyloid nucleation score of 5.91 ± 0.07. In turn, WYSTFGAMKKLGTYPCSGVN returned an amyloid nucleation score of -0.46 ± 1. With YAALVHTHLKDYEISIYVIN the figure was 0.988 ± 0.43. On to YADRFRASASPNMCDRCSLW, for which the amyloid nucleation score is 4.01 ± 0.098. As for YALCKLSA, the amyloid nucleation score was determined as 0.851 ± 0.79. With YANCL, the amyloid nucleation score amounted to 0.517 ± 0.44. With YAPLLLSWAYFGV the figure was 1.31 ± 0.25; with YCANQRNSVPMGRMEPHSSS, -0.2 ± 0.49; with YCCGDTPTFCSLKFIMS, 7.059 ± 0.047.

YCCYLMCYSRRILDGP came in with an amyloid nucleation score of 0.174 ± 0.43. Turning to YCEYILGFCFEMYAFGNRSP, the amyloid nucleation score stood at 0.573 ± 0.62. As for YCNLIRFKFCVNSCCMSSSL, the amyloid nucleation score was 5.64 ± 0.078. The figure for YCPSC is 0.859 ± 0.42. YCRFWVDFFVFESILDSPPN: the amyloid nucleation score stood at 0.093 ± 0.32.

Take YCWRVSHLGNGRYRLSLSFG: the amyloid nucleation score entry was “inactive”. YDEGWANT showed an amyloid nucleation score of 0.048 ± 1.5. With YDMIWSSMLGFIERQAYMLP the figure was -0.502 ± 0.32; with YDPPTWIHNAMGG, 0.342 ± 0.41; with YDPRIGLVSVGNVRNNSV, -1.48 ± 1.4. As for YDRMRTSIVRACERNLSDMH, the amyloid nucleation score was found to be 0.786 ± 0.35. On to YDRVYLNQFVRTESVHFFCL, for which the amyloid nucleation score is 6.341 ± 0.056. The substance YDSRCMAVSFSGSLFSHLLE displayed an amyloid nucleation score of -0.317 ± 0.45. As to YDTFSPRSWS, the amyloid nucleation score was found to be 2.02 ± 0.62. The substance YDTLMMNNLEMSTFVRMGLW yielded an amyloid nucleation score of 0.503 ± 0.51. With YECKVYKSK the figure was 0.466 ± 0.47; with YEGGM, -0.334 ± 0.73. In turn, YELAMECYVSWVLLYVA came in with an amyloid nucleation score of 0.362 ± 0.32. In the case of YEPEGIQSIWRCSAVRHAKA, the amyloid nucleation score is -0.286 ± 1.9.

The substance YFAEDSCERFAPDWVRLSTR yielded an amyloid nucleation score of -0.425 ± 1.3. With YFASCRTM the figure was -0.193 ± 0.27; with YFCCALSNLLFRKSKHDRVR, 6.872 ± 0.068; with YFDWTRVGYNYGSILLPVEA, 0.135 ± 0.51. The substance YFFGLILY yielded an amyloid nucleation score of -0.332 ± 0.56. YFFRKLSGSWASSFLVAPMV came in with an amyloid nucleation score of 0.444 ± 0.59. On to YFKNTGEVRSIRLSGHHGWG, for which the amyloid nucleation score was found to be 0.048 ± 0.86. As for YFNVSWID, the amyloid nucleation score is 1.02 ± 0.38. With YFSGLKDFILISNQNGSS the figure was 2.66 ± 0.2; with YFSVYSRHRSIWTCGIVYSK, 0.078 ± 0.49.

Consider YGCDGDVFRLIVWDVIAPSE, for which the amyloid nucleation score stood at 0.044 ± 0.34. For YGCSVYTVCMF, the amyloid nucleation score was determined as 8.243 ± 0.071.

YGETGVINWRV returned an amyloid nucleation score of -0.217 ± 0.44. With YGFKSRDKPFNL the figure was 0.008 ± 0.44. Regarding YGINMWRYLGNQEEATIVFL, the amyloid nucleation score was 0.244 ± 0.3. Substance YGQMVIFGPVMLMAVLTW came in with an amyloid nucleation score of 3.33 ± 0.093. YGTNKISVALWS displayed an amyloid nucleation score of -0.054 ± 0.79. In turn, YGYLTITPVQVYIQRTSTWT yielded an amyloid nucleation score of 4.16 ± 0.12. Substance YGYMGGCHFPLYLMRIDSRD had an amyloid nucleation score of 0.564 ± 0.75. The entry for YGYRSRSLSFCLD is “inactive”.

YHFTSFSNVHHLAHRVGNSF displayed an amyloid nucleation score of -0.333 ± 1.4. As for YHKTYIRYWAIVFDMMVRFG, the amyloid nucleation score was 0.372 ± 1.4. YHVRLV yielded an amyloid nucleation score of 0.147 ± 0.34.

For YIASMVCDIRKPHPCLVYVL, the amyloid nucleation score was determined as 0.149 ± 0.42. YICEFMIRTMKQPWPSKGEG yielded an amyloid nucleation score of 0.542 ± 0.32. The figure for YIFWLYWRQSSSNCLGDVKW is -0.46 ± 0.46; for YILWHEIFQDCLTRDIIRLM it is 0.248 ± 0.54. YIRIMLGMMPNLRERSRTRV: the amyloid nucleation score result was “inactive”. In the case of YIVGPIGVFSY, the amyloid nucleation score amounted to 2.25 ± 0.55. As for YKEFVLYILYRLGLMIRKA, the amyloid nucleation score entry is “inactive”.

YKESPYNYTWGTVLVGCMVI registered an amyloid nucleation score of -0.702 ± 1.1. As for YKFCVILSNGRQCVMALVRP, the amyloid nucleation score was 0.286 ± 1.2. With YKFYVTTLGFYDWCPFPVER, the amyloid nucleation score was 0.831 ± 0.42. For the substance YKNFKFSDDTRMFVNNVSVY, the amyloid nucleation score was found to be 1.25 ± 0.56. In the case of YKNIPFTYGSFVLASYMSRK, the amyloid nucleation score turned out to be 0.368 ± 0.63.
